{"source": "patent US20230406951A1", "about": "(Pfizer, published 2023)", "data": [{"molecular_target": "T1, human TNFR2 (human, UniProt P20333 23-461)", "T1 construct": "expressed on the surface of CHO cells; also called HuTNFR2; TNFRSF1B", "T1 sequence": "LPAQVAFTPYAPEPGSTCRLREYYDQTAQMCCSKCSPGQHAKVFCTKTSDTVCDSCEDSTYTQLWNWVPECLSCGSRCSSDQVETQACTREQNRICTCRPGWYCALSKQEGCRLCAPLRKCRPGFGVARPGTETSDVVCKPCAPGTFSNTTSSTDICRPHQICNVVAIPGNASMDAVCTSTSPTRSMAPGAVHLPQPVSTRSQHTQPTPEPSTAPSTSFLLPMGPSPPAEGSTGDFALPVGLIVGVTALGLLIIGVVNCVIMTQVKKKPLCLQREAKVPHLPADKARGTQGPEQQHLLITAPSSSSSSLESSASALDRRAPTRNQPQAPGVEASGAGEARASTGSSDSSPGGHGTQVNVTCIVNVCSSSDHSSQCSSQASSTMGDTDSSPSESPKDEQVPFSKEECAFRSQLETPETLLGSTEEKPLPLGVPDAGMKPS", "experiment": "binding to human TNFR2 CHO cells", "values": [{"binder": "TetraFab 2162 (antibody, TetraFab) heavy: QVQLVQSGAEVKKPGASVKVSCKVSGFSFPSSGVDWVRQAPGQGLEWLGVTLGHGSTHYNQKFQGRVTITKDTSKSTVYMELSSLRSEDTAVYYCASGESTEGFVYWGQGTLVTVSSASTKGPSVFPLAPSSKSTSGGTAALGCLVKDYFPEPVTVSWNSGALTSGVHTFPAVLQSSGLYSLSSVVTVPSSSLGTQTYICNVNHKPSNTKVDKKVEPKSCGGGGSQVQLVQSGAEVKKPGASVKVSCKVSGFSFPSSGVDWVRQAPGQGLEWLGVTLGHGSTHYNQKFQGRVTITKDTSKSTVYMELSSLRSEDTAVYYCASGESTEGFVYWGQGTLVTVSSASTKGPSVFPLAPSSKSTSGGTAALGCLVKDYFPEPVTVSWNSGALTSGVHTFPAVLQSSGLYSLSSVVTVPSSSLGTQTYICNVNHKPSNTKVDKKVEPKSCDKTHTCPPCPAPEAAGAPSVFLFPPKPKDTLMISRTPEVTCVVVDVSHEDPEVKFNWYVDGVEVHNAKTKPREEQYNSTYRVVSVLTVLHQDWLNGKEYKCKVSNKALPAPIEKTISKAKGQPREPQVYTLPPSREEMTKNQVSLTCLVKGFYPSDIAVEWESNGQPENNYKTTPPVLDSDGSFFLYSKLTVDKSRWQQGNVFSCSVMHEALHNHYTQKSLSLSPGK light: DIQLTQSPSFLSASVGDRVTITCKASQNVGTAVAWYQQKPGKAPKLLIYAASTLQSGVPSRFSGSGSGTEFTLTISSLQPEDFATYYCLQKSSYPLTFGGGTKVEIKRTVAAPSVFIFPPSDEQLKSGTASVVCLLNNFYPREAKVQWKVDNALQSGNSQESVTEQDSKDSTYSLSSTLTLSKADYEKHKVYACEVTHQGLSSPVTKSFNRGEC", "binding result": "no binding"}, {"binder": "TetraFab 2172 (antibody, TetraFab) heavy: QVQLVQSGAEVKKPGASVKVSCKVSGFSFPSSGVDWVRQAPGQGLEWLGVTFQEGSTHYNQKFQGRVTITKDTSKSTVYMELSSLRSEDTAVYYCASGEWDEGFVYWGQGTLVTVSSASTKGPSVFPLAPSSKSTSGGTAALGCLVKDYFPEPVTVSWNSGALTSGVHTFPAVLQSSGLYSLSSVVTVPSSSLGTQTYICNVNHKPSNTKVDKKVEPKSCGGGGSQVQLVQSGAEVKKPGASVKVSCKVSGFSFPSSGVDWVRQAPGQGLEWLGVTFQEGSTHYNQKFQGRVTITKDTSKSTVYMELSSLRSEDTAVYYCASGEWDEGFVYWGQGTLVTVSSASTKGPSVFPLAPSSKSTSGGTAALGCLVKDYFPEPVTVSWNSGALTSGVHTFPAVLQSSGLYSLSSVVTVPSSSLGTQTYICNVNHKPSNTKVDKKVEPKSCDKTHTCPPCPAPEAAGAPSVFLFPPKPKDTLMISRTPEVTCVVVDVSHEDPEVKFNWYVDGVEVHNAKTKPREEQYNSTYRVVSVLTVLHQDWLNGKEYKCKVSNKALPAPIEKTISKAKGQPREPQVYTLPPSREEMTKNQVSLTCLVKGFYPSDIAVEWESNGQPENNYKTTPPVLDSDGSFFLYSKLTVDKSRWQQGNVFSCSVMHEALHNHYTQKSLSLSPGK light: DIQLTQSPSFLSASVGDRVTITCKASQNVGTAVAWYQQKPGKAPKLLIYAASTLQSGVPSRFSGSGSGTEFTLTISSLQPEDFATYYCLQYSSYPLTFGGGTKVEIKRTVAAPSVFIFPPSDEQLKSGTASVVCLLNNFYPREAKVQWKVDNALQSGNSQESVTEQDSKDSTYSLSSTLTLSKADYEKHKVYACEVTHQGLSSPVTKSFNRGEC", "binding result": "no binding"}, {"binder": "TetraFab 2173 (antibody, TetraFab) heavy: QVQLVQSGAEVKKPGASVKVSCKVSGFSFPSSGVDWVRQAPGQGLEWLGVTLGHGSTHYNQKFQGRVTITKDTSKSTVYMELSSLRSEDTAVYYCASGEWDEGFVYWGQGTLVTVSSASTKGPSVFPLAPSSKSTSGGTAALGCLVKDYFPEPVTVSWNSGALTSGVHTFPAVLQSSGLYSLSSVVTVPSSSLGTQTYICNVNHKPSNTKVDKKVEPKSCGGGGSQVQLVQSGAEVKKPGASVKVSCKVSGFSFPSSGVDWVRQAPGQGLEWLGVTLGHGSTHYNQKFQGRVTITKDTSKSTVYMELSSLRSEDTAVYYCASGEWDEGFVYWGQGTLVTVSSASTKGPSVFPLAPSSKSTSGGTAALGCLVKDYFPEPVTVSWNSGALTSGVHTFPAVLQSSGLYSLSSVVTVPSSSLGTQTYICNVNHKPSNTKVDKKVEPKSCDKTHTCPPCPAPEAAGAPSVFLFPPKPKDTLMISRTPEVTCVVVDVSHEDPEVKFNWYVDGVEVHNAKTKPREEQYNSTYRVVSVLTVLHQDWLNGKEYKCKVSNKALPAPIEKTISKAKGQPREPQVYTLPPSREEMTKNQVSLTCLVKGFYPSDIAVEWESNGQPENNYKTTPPVLDSDGSFFLYSKLTVDKSRWQQGNVFSCSVMHEALHNHYTQKSLSLSPGK light: DIQLTQSPSFLSASVGDRVTITCKASQNVGTAVAWYQQKPGKAPKLLIYAASTLQSGVPSRFSGSGSGTEFTLTISSLQPEDFATYYCLQYSSYPLTFGGGTKVEIKRTVAAPSVFIFPPSDEQLKSGTASVVCLLNNFYPREAKVQWKVDNALQSGNSQESVTEQDSKDSTYSLSSTLTLSKADYEKHKVYACEVTHQGLSSPVTKSFNRGEC", "binding result": "no binding"}, {"binder": "TetraFab 2167 (antibody, TetraFab) heavy: QVQLVQSGAEVKKPGASVKVSCKVSGFSFPSSGVDWVRQAPGQGLEWLGVTHGSGSTHYNQKFQGRVTITKDTSKSTVYMELSSLRSEDTAVYYCASGEHDEGFVYWGQGTLVTVSSASTKGPSVFPLAPSSKSTSGGTAALGCLVKDYFPEPVTVSWNSGALTSGVHTFPAVLQSSGLYSLSSVVTVPSSSLGTQTYICNVNHKPSNTKVDKKVEPKSCGGGGSQVQLVQSGAEVKKPGASVKVSCKVSGFSFPSSGVDWVRQAPGQGLEWLGVTHGSGSTHYNQKFQGRVTITKDTSKSTVYMELSSLRSEDTAVYYCASGEHDEGFVYWGQGTLVTVSSASTKGPSVFPLAPSSKSTSGGTAALGCLVKDYFPEPVTVSWNSGALTSGVHTFPAVLQSSGLYSLSSVVTVPSSSLGTQTYICNVNHKPSNTKVDKKVEPKSCDKTHTCPPCPAPEAAGAPSVFLFPPKPKDTLMISRTPEVTCVVVDVSHEDPEVKFNWYVDGVEVHNAKTKPREEQYNSTYRVVSVLTVLHQDWLNGKEYKCKVSNKALPAPIEKTISKAKGQPREPQVYTLPPSREEMTKNQVSLTCLVKGFYPSDIAVEWESNGQPENNYKTTPPVLDSDGSFFLYSKLTVDKSRWQQGNVFSCSVMHEALHNHYTQKSLSLSPGK light: DIQLTQSPSFLSASVGDRVTITCKASQNVGTAVAWYQQKPGKAPKLLIYAASTLQSGVPSRFSGSGSGTEFTLTISSLQPEDFATYYCLQKSSYPLTFGGGTKVEIKRTVAAPSVFIFPPSDEQLKSGTASVVCLLNNFYPREAKVQWKVDNALQSGNSQESVTEQDSKDSTYSLSSTLTLSKADYEKHKVYACEVTHQGLSSPVTKSFNRGEC", "binding result": "no binding"}, {"binder": "TetraFab 2163 (antibody, TetraFab) heavy: QVQLVQSGAEVKKPGASVKVSCKVSGFSFPSSGVDWVRQAPGQGLEWLGVTLGHGSTHYNQKFQGRVTITKDTSKSTVYMELSSLRSEDTAVYYCASGEHDEGFVYWGQGTLVTVSSASTKGPSVFPLAPSSKSTSGGTAALGCLVKDYFPEPVTVSWNSGALTSGVHTFPAVLQSSGLYSLSSVVTVPSSSLGTQTYICNVNHKPSNTKVDKKVEPKSCGGGGSQVQLVQSGAEVKKPGASVKVSCKVSGFSFPSSGVDWVRQAPGQGLEWLGVTLGHGSTHYNQKFQGRVTITKDTSKSTVYMELSSLRSEDTAVYYCASGEHDEGFVYWGQGTLVTVSSASTKGPSVFPLAPSSKSTSGGTAALGCLVKDYFPEPVTVSWNSGALTSGVHTFPAVLQSSGLYSLSSVVTVPSSSLGTQTYICNVNHKPSNTKVDKKVEPKSCDKTHTCPPCPAPEAAGAPSVFLFPPKPKDTLMISRTPEVTCVVVDVSHEDPEVKFNWYVDGVEVHNAKTKPREEQYNSTYRVVSVLTVLHQDWLNGKEYKCKVSNKALPAPIEKTISKAKGQPREPQVYTLPPSREEMTKNQVSLTCLVKGFYPSDIAVEWESNGQPENNYKTTPPVLDSDGSFFLYSKLTVDKSRWQQGNVFSCSVMHEALHNHYTQKSLSLSPGK light: DIQLTQSPSFLSASVGDRVTITCKASQNVGTAVAWYQQKPGKAPKLLIYAASTLQSGVPSRFSGSGSGTEFTLTISSLQPEDFATYYCLQKSSYPLTFGGGTKVEIKRTVAAPSVFIFPPSDEQLKSGTASVVCLLNNFYPREAKVQWKVDNALQSGNSQESVTEQDSKDSTYSLSSTLTLSKADYEKHKVYACEVTHQGLSSPVTKSFNRGEC", "binding result": "no binding"}, {"binder": "TetraFab 2174 (antibody, TetraFab) heavy: QVQLVQSGAEVKKPGASVKVSCKVSGFSFPSSGVDWVRQAPGQGLEWLGVTHGSGSTHYNQKFQGRVTITKDTSKSTVYMELSSLRSEDTAVYYCASGEWDEGFVYWGQGTLVTVSSASTKGPSVFPLAPSSKSTSGGTAALGCLVKDYFPEPVTVSWNSGALTSGVHTFPAVLQSSGLYSLSSVVTVPSSSLGTQTYICNVNHKPSNTKVDKKVEPKSCGGGGSQVQLVQSGAEVKKPGASVKVSCKVSGFSFPSSGVDWVRQAPGQGLEWLGVTHGSGSTHYNQKFQGRVTITKDTSKSTVYMELSSLRSEDTAVYYCASGEWDEGFVYWGQGTLVTVSSASTKGPSVFPLAPSSKSTSGGTAALGCLVKDYFPEPVTVSWNSGALTSGVHTFPAVLQSSGLYSLSSVVTVPSSSLGTQTYICNVNHKPSNTKVDKKVEPKSCDKTHTCPPCPAPEAAGAPSVFLFPPKPKDTLMISRTPEVTCVVVDVSHEDPEVKFNWYVDGVEVHNAKTKPREEQYNSTYRVVSVLTVLHQDWLNGKEYKCKVSNKALPAPIEKTISKAKGQPREPQVYTLPPSREEMTKNQVSLTCLVKGFYPSDIAVEWESNGQPENNYKTTPPVLDSDGSFFLYSKLTVDKSRWQQGNVFSCSVMHEALHNHYTQKSLSLSPGK light: DIQLTQSPSFLSASVGDRVTITCKASQNVGTAVAWYQQKPGKAPKLLIYAASTLQSGVPSRFSGSGSGTEFTLTISSLQPEDFATYYCLQYSSYPLTFGGGTKVEIKRTVAAPSVFIFPPSDEQLKSGTASVVCLLNNFYPREAKVQWKVDNALQSGNSQESVTEQDSKDSTYSLSSTLTLSKADYEKHKVYACEVTHQGLSSPVTKSFNRGEC", "binding result": "no binding"}]}]}
